From paper PMC6376064

Target: Nrf2 (UniProt Q60795)
Experiment: anti-Flag (Nrf2) co-IP, immunoblot
Details: reference: Keap1 wild type; sites T51,S53,T55,T80

Keap1 (from UniProt Q9Z2X8) Keap1 4A
binding against the reference: stronger
